The source of these data is patent US20050053913A1.

This experiment has as its target AD-E2F1 (GAL4-AD fused to AA 159-437 of E2F1) (yeast; human) (UniProt P04386). As to the kind of experiment: cell-based or functional assay.

As for “DB-DP1 (GAL4-DB fused to DP1) (from UniProt P04386 1-147; Q14186 1-410)”, the growth on medium lacking histidine with 3AT (GAL1:HIS3 reporter) is under 100 mM 3AT.
